Measurements as given in US12679878B2, “CRF2 receptor agonists and their use in therapy” (SANOFI, priority 2020, dated 2026).
Starred links: 1 amine or outer side, 2 acyl side, 3 side chain; linkers in the order of their positions; H or OH if unused. Non-standard residues stand in square brackets, D forms with d. Groups on a side chain read outwards from the residue. No end group written: not given here. *: point of attachment. C16 diacid = O=C(O)CCCCCCCCCCCCCCC(=O)*; γGlu = O=C(O)[C@H](CCC(=O)[*:2])N[*:1]; Palmitoyl = CCCCCCCCCCCCCCCC(=O)*; AEEA = NCCOCCOCC(=O)O; Aib = CC(C)(N)C(=O)O

T1: CRF1R receptor (anti-target) (UniProt P34998 24-415, limits assumed)
T1 sequence (looked up): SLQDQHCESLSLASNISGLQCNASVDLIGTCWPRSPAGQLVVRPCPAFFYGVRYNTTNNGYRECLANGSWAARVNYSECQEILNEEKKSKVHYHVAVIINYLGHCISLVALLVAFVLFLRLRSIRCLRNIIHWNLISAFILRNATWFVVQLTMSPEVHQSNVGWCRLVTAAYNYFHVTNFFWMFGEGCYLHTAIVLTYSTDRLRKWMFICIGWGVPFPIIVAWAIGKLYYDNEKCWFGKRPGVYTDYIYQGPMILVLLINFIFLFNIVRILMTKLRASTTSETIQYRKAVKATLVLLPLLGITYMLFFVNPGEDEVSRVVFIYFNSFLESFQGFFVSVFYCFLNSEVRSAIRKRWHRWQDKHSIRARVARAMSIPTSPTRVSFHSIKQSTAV

B1: peptide of SEQ ID NO: 198 (peptide)
peptide: IVLSLD[dV]PIKLK([AEEA-AEEA-γGlu-C16 diacid])QILLKQERQK[Aib]QREQAEKNKQILAQV-NH2
modifications: N-terminus assumed
SMILES: CC[C@H](C)[C@H](N)C(=O)N[C@H](C(=O)N[C@@H](CC(C)C)C(=O)N[C@@H](CO)C(=O)N[C@@H](CC(C)C)C(=O)N[C@@H](CC(=O)O)C(=O)N[C@@H](C(=O)N1CCC[C@H]1C(=O)N[C@H](C(=O)N[C@@H](CCCCN)C(=O)N[C@@H](CC(C)C)C(=O)N[C@@H](CCCCNC(=O)COCCOCCNC(=O)COCCOCCNC(=O)CC[C@H](NC(=O)CCCCCCCCCCCCCCC(=O)O)C(=O)O)C(=O)N[C@@H](CCC(N)=O)C(=O)N[C@H](C(=O)N[C@@H](CC(C)C)C(=O)N[C@@H](CC(C)C)C(=O)N[C@@H](CCCCN)C(=O)N[C@@H](CCC(N)=O)C(=O)N[C@@H](CCC(=O)O)C(=O)N[C@@H](CCCNC(=N)N)C(=O)N[C@@H](CCC(N)=O)C(=O)N[C@@H](CCCCN)C(=O)NC(C)(C)C(=O)N[C@@H](CCC(N)=O)C(=O)N[C@@H](CCCNC(=N)N)C(=O)N[C@@H](CCC(=O)O)C(=O)N[C@@H](CCC(N)=O)C(=O)N[C@@H](C)C(=O)N[C@@H](CCC(=O)O)C(=O)N[C@@H](CCCCN)C(=O)N[C@@H](CC(N)=O)C(=O)N[C@@H](CCCCN)C(=O)N[C@@H](CCC(N)=O)C(=O)N[C@H](C(=O)N[C@@H](CC(C)C)C(=O)N[C@@H](C)C(=O)N[C@@H](CCC(N)=O)C(=O)N[C@H](C(N)=O)C(C)C)[C@@H](C)CC)[C@@H](C)CC)[C@@H](C)CC)C(C)C)C(C)C
B2: peptide of SEQ ID NO: 191 (peptide)
peptide: IVLSLD[dV]PIKLK([γGlu-C16 diacid])QILLKQERQKKQREKAEKNKQILAQV-NH2
modifications: N-terminus assumed
SMILES: CC[C@H](C)[C@H](N)C(=O)N[C@H](C(=O)N[C@@H](CC(C)C)C(=O)N[C@@H](CO)C(=O)N[C@@H](CC(C)C)C(=O)N[C@@H](CC(=O)O)C(=O)N[C@@H](C(=O)N1CCC[C@H]1C(=O)N[C@H](C(=O)N[C@@H](CCCCN)C(=O)N[C@@H](CC(C)C)C(=O)N[C@@H](CCCCNC(=O)CC[C@H](NC(=O)CCCCCCCCCCCCCCC(=O)O)C(=O)O)C(=O)N[C@@H](CCC(N)=O)C(=O)N[C@H](C(=O)N[C@@H](CC(C)C)C(=O)N[C@@H](CC(C)C)C(=O)N[C@@H](CCCCN)C(=O)N[C@@H](CCC(N)=O)C(=O)N[C@@H](CCC(=O)O)C(=O)N[C@@H](CCCNC(=N)N)C(=O)N[C@@H](CCC(N)=O)C(=O)N[C@@H](CCCCN)C(=O)N[C@@H](CCCCN)C(=O)N[C@@H](CCC(N)=O)C(=O)N[C@@H](CCCNC(=N)N)C(=O)N[C@@H](CCC(=O)O)C(=O)N[C@@H](CCCCN)C(=O)N[C@@H](C)C(=O)N[C@@H](CCC(=O)O)C(=O)N[C@@H](CCCCN)C(=O)N[C@@H](CC(N)=O)C(=O)N[C@@H](CCCCN)C(=O)N[C@@H](CCC(N)=O)C(=O)N[C@H](C(=O)N[C@@H](CC(C)C)C(=O)N[C@@H](C)C(=O)N[C@@H](CCC(N)=O)C(=O)N[C@H](C(N)=O)C(C)C)[C@@H](C)CC)[C@@H](C)CC)[C@@H](C)CC)C(C)C)C(C)C
B3: peptide of SEQ ID NO: 194 (peptide)
peptide: IVLSLD[dV]PIGLK([γGlu-C16 diacid])QILLKQERQKK[Aib]REQAETNKQILAQV-NH2
modifications: N-terminus assumed
SMILES: CC[C@H](C)[C@H](N)C(=O)N[C@H](C(=O)N[C@@H](CC(C)C)C(=O)N[C@@H](CO)C(=O)N[C@@H](CC(C)C)C(=O)N[C@@H](CC(=O)O)C(=O)N[C@@H](C(=O)N1CCC[C@H]1C(=O)N[C@H](C(=O)NCC(=O)N[C@@H](CC(C)C)C(=O)N[C@@H](CCCCNC(=O)CC[C@H](NC(=O)CCCCCCCCCCCCCCC(=O)O)C(=O)O)C(=O)N[C@@H](CCC(N)=O)C(=O)N[C@H](C(=O)N[C@@H](CC(C)C)C(=O)N[C@@H](CC(C)C)C(=O)N[C@@H](CCCCN)C(=O)N[C@@H](CCC(N)=O)C(=O)N[C@@H](CCC(=O)O)C(=O)N[C@@H](CCCNC(=N)N)C(=O)N[C@@H](CCC(N)=O)C(=O)N[C@@H](CCCCN)C(=O)N[C@@H](CCCCN)C(=O)NC(C)(C)C(=O)N[C@@H](CCCNC(=N)N)C(=O)N[C@@H](CCC(=O)O)C(=O)N[C@@H](CCC(N)=O)C(=O)N[C@@H](C)C(=O)N[C@@H](CCC(=O)O)C(=O)N[C@H](C(=O)N[C@@H](CC(N)=O)C(=O)N[C@@H](CCCCN)C(=O)N[C@@H](CCC(N)=O)C(=O)N[C@H](C(=O)N[C@@H](CC(C)C)C(=O)N[C@@H](C)C(=O)N[C@@H](CCC(N)=O)C(=O)N[C@H](C(N)=O)C(C)C)[C@@H](C)CC)[C@@H](C)O)[C@@H](C)CC)[C@@H](C)CC)C(C)C)C(C)C
B4: peptide of SEQ ID NO: 217 (peptide)
peptide: IVLSLD[dV]PIGLK([AEEA-AEEA-γGlu-γGlu-Palmitoyl])QILLKQERQKK[Aib]REQAETNKQILAQV-NH2
modifications: N-terminus assumed
SMILES: CCCCCCCCCCCCCCCC(=O)N[C@@H](CCC(=O)N[C@@H](CCC(=O)NCCOCCOCC(=O)NCCOCCOCC(=O)NCCCC[C@H](NC(=O)[C@H](CC(C)C)NC(=O)CNC(=O)[C@@H](NC(=O)[C@@H]1CCCN1C(=O)[C@H](NC(=O)[C@H](CC(=O)O)NC(=O)[C@H](CC(C)C)NC(=O)[C@H](CO)NC(=O)[C@H](CC(C)C)NC(=O)[C@@H](NC(=O)[C@@H](N)[C@@H](C)CC)C(C)C)C(C)C)[C@@H](C)CC)C(=O)N[C@@H](CCC(N)=O)C(=O)N[C@H](C(=O)N[C@@H](CC(C)C)C(=O)N[C@@H](CC(C)C)C(=O)N[C@@H](CCCCN)C(=O)N[C@@H](CCC(N)=O)C(=O)N[C@@H](CCC(=O)O)C(=O)N[C@@H](CCCNC(=N)N)C(=O)N[C@@H](CCC(N)=O)C(=O)N[C@@H](CCCCN)C(=O)N[C@@H](CCCCN)C(=O)NC(C)(C)C(=O)N[C@@H](CCCNC(=N)N)C(=O)N[C@@H](CCC(=O)O)C(=O)N[C@@H](CCC(N)=O)C(=O)N[C@@H](C)C(=O)N[C@@H](CCC(=O)O)C(=O)N[C@H](C(=O)N[C@@H](CC(N)=O)C(=O)N[C@@H](CCCCN)C(=O)N[C@@H](CCC(N)=O)C(=O)N[C@H](C(=O)N[C@@H](CC(C)C)C(=O)N[C@@H](C)C(=O)N[C@@H](CCC(N)=O)C(=O)N[C@H](C(N)=O)C(C)C)[C@@H](C)CC)[C@@H](C)O)[C@@H](C)CC)C(=O)O)C(=O)O

The binders below were run against T1, CRF1R receptor (anti-target) (assay: cell-based or functional assay).
In the case of B1, the “EC50 [nM] 0% HSA (cAMP, HTRF)” value is reported as greater than 100 nM and the “Emax (%) (100% = Sauvagine at 100 nM)” value is reported as 1.4%. With B2 the “EC50 [nM] 0% HSA (cAMP, HTRF)” value was greater than 100 nM and the “Emax (%) (100% = Sauvagine at 100 nM)” value was 12.5%. In the case of B3, the “EC50 [nM] 0% HSA (cAMP, HTRF)” value is reported as greater than 100 nM and the “Emax (%) (100% = Sauvagine at 100 nM)” value is reported as 21.6%.

These binders were tested against human corticotropin-releasing factor 2α (CRF2α receptor) (human), Q13324 (assay: cell-based or functional assay).
Chain of human corticotropin-releasing factor 2α (CRF2α receptor) (human), Q13324 (Q13324 20-411): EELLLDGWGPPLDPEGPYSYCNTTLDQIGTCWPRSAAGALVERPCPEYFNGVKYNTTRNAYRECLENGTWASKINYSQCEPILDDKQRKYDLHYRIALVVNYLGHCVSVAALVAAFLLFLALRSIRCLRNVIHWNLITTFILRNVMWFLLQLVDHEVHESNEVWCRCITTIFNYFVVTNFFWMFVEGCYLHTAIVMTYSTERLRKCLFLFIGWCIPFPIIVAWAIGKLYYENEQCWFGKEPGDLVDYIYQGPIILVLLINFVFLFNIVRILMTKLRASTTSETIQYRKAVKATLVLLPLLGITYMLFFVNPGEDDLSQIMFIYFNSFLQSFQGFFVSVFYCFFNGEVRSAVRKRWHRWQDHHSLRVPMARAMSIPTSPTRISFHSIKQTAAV
Work on B1 yielded an EC50 [nM], 0% HSA (cAMP, HTRF) of 0.49 nM. B4 gave an EC50 [nM], 0% HSA (cAMP, HTRF) of 0.16 nM. In the case of B2, the EC50 [nM], 0% HSA (cAMP, HTRF) is reported as 2.68 nM. Work on B3 yielded an EC50 [nM], 0% HSA (cAMP, HTRF) of 0.11 nM.
